This assay concerns the target Irgb6 (mouse (endogenous in macrophages)) (UniProt Q62293). The assay is described as follows: co-IP.
UniProt Q62293, sequence (Q62293 whole entry): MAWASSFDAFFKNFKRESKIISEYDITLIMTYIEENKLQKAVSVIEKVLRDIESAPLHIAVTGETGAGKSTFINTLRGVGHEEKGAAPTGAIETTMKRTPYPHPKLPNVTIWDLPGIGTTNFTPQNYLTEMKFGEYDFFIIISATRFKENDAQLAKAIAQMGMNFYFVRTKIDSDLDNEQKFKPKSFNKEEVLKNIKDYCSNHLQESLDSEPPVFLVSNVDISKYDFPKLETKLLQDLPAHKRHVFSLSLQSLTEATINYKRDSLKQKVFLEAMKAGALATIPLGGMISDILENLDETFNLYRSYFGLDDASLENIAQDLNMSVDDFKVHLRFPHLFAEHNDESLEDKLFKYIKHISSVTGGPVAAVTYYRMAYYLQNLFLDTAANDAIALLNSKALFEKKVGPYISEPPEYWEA

Turning to “kinase-dead ROP18 D/A (Ty-tagged; expressed in transgenic type III parasites) (from UniProt Q2PAY2 1-554) (enzyme)”, the fold change of co-precipitated ROP18 against active ROP18 was found to be 3 fold.
